Earlier results, collected in patent US9145575B2, “Detection of protease and protease activity using a single nanocrescent SERS probe” (The Regents of the University of California, priority 2006, dated 2015).

Molecular target: PSA (Homo sapiens, UniProt P07288)
Details: mouse model

PSA, sequence (P07288 25-261): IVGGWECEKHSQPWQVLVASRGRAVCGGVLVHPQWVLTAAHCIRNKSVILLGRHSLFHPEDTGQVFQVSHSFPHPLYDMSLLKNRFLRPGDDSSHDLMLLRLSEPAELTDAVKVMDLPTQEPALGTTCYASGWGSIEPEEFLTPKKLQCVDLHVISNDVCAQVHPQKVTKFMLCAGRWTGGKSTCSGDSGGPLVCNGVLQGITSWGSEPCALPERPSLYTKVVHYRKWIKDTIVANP

In the case of “HSSKLQ-L (HSSKLQLAAAC; Synthetic protease substrate)”, the “cleavage by proteases in vivo” value is listed as “cleaved by PSA but not by any other proteases”.
